Reference: US20250144172A1, “ANTI-FIBROTIC SIALIDASE INHIBITOR COMPOUNDS AND METHODS OF USE” (The Texas A&M University System, priority 2016, published 2025)

B1: NEU4: recombinant human NEU4 (sialidase 4), human neuraminidase 4 (protein, UniProt Q8WWR8 1-484, looked up)
Sialidase-4: MGVPRTPSRTVLFERERTGLTYRVPSLLPVPPGPTLLAFVEQRLSPDDSHAHRLVLRRGTLAGGSVRWGALHVLGTAALAEHRSMNPCPVHDAGTGTVFLFFIAVLGHTPEAVQIATGRNAARLCCVASRDAGLSWGSARDLTEEAIGGAVQDWATFAVGPGHGVQLPSGRLLVPAYTYRVDRRECFGKICRTSPHSFAFYSDDHGRTWRCGGLVPNLRSGECQLAAVDGGQAGSFLYCNARSPLGSRVQALSTDEGTSFLPAERVASLPETAWGCQGSIVGFPAPAPNRPRDDSWSVGPGSPLQPPLLGPGVHEPPEEAAVDPRGGQVPGGPFSRLQPRGDGPRQPGPRPGVSGDVGSWTLALPMPFAAPPQSPTWLLYSHPVGRRARLHMGIRLSQSPLDPRSWTEPWVIYEGPSGYSDLASIGPAPEGGLVFACLYESGARTSYDEISFCTFSLREVLENVPASPKPPNLGDKPRGCCWPS
B2: NEU2: recombinant human NEU2 (sialidase 2), human neuraminidase 2 (protein, UniProt Q9Y3R4 1-380, looked up)
Sialidase-2: MASLPVLQKESVFQSGAHAYRIPALLYLPGQQSLLAFAEQRASKKDEHAELIVLRRGDYDAPTHQVQWQAQEVVAQARLDGHRSMNPCPLYDAQTGTLFLFFIAIPGQVTEQQQLQTRANVTRLCQVTSTDHGRTWSSPRDLTDAAIGPAYREWSTFAVGPGHCLQLHDRARSLVVPAYAYRKLHPIQRPIPSAFCFLSHDHGRTWARGHFVAQDTLECQVAEVETGEQRVVTLNARSHLRARVQAQSTNDGLDFQESQLVKKLVEPPPQGCQGSVISFPSPRSGPGSPAQWLLYTHPTHSWQRADLGAYLNPRPPAPEAWSEPVLLAKGSCAYSDLQSMGTGPDGSPLFGCLYEANDYEEIVFLMFTLKQAFPAEYLPQ
B3: NEU3: recombinant human sialidase NEU3 (TP316537, Origene) (protein, UniProt Q9UQ49 1-428, looked up)
Sialidase-3: MEEVTTCSFNSPLFRQEDDRGITYRIPALLYIPPTHTFLAFAEKRSTRRDEDALHLVLRRGLRIGQLVQWGPLKPLMEATLPGHRTMNPCPVWEQKSGCVFLFFICVRGHVTERQQIVSGRNAARLCFIYSQDAGCSWSEVRDLTEEVIGSELKHWATFAVGPGHGIQLQSGRLVIPAYTYYIPSWFFCFQLPCKTRPHSLMIYSDDLGVTWHHGRLIRPMVTVECEVAEVTGRAGHPVLYCSARTPNRCRAEALSTDHGEGFQRLALSRQLCEPPHGCQGSVVSFRPLEIPHRCQDSSSKDAPTIQQSSPGSSLRLEEEAGTPSESWLLYSHPTSRKQRVDLGIYLNQTPLEAACWSRPWILHCGPCGYSDLAALEEEGLFGCLFECGTKQECEQIAFRLFTHREILSHLQGDCTSPGRNPSQFKSN

Legend:
[1] = recombinant human sialidase activity, 4MU-NANA cleavage at pH 6.4 and 7.0; assay type: biochemical
Procedure: In general, sialidase activity, including human sialidase activity, may be assessed at 37° C. in the presence of buffers ranging in pH from 3.7 to 7.4. Buffers with pH 3.7, 4.0, 4.6, 5.2 and 5.6 are 100 mM sodium acetate buffers. Buffers with pH 5.8, 6.4, 7.0 and 8.0 are based on Phosphate-Buffered Saline (PBS), with addition of 12 N HCl or 1 M NaOH to adjust the pH. Bovine serum albumin (BSA) is added to the buffer at a concentration of 100 ug/ml. Sialidase at a final concentration of 300 ng/ml is then added to the buffer. A sialidase inhibitor is then added to the mixture at a series of final concentrations. The reaction mixture is incubated for 30 minutes to allow the inhibitor to bind the sialidase. The fluorometric substrate 4MU-NANA [2′-(4-Methylumbelliferyl)-α-D-N-acetylneuraminic acid sodium salt hydrate is then added at a final concentration of 200 μM. Control reactions have no added inhibitor. The total volume of each reaction mixture is 0.1 ml. The cleavage of 4MU-NANA is then monitored by fluorescence every 20 minutes for 5 hours with excitation light at 360 nm and the fluorescence emission at 460 nm.
The fluorescence in the absence of sialidases is subtracted from all readings. The fluorescence of known concentrations of 4-methylumbelliferone is used to convert fluorescence to moles of product.
To determine if sialidases have enzymatic activity at the pH of the extracellular environment, sialidases may be assayed at pH 7.0, approximately corresponding to an extracellular pH in a normal tissue, at pH 6.4, approximately corresponding to an extracellular pH in a fibrotic tissue, or both.
In an example assay, recombinant human sialidases were assayed at pH 6.4, approximately corresponding to the extracellular pH that might occur in a fibrotic tissue, and at pH 7.0, approximately corresponding to a normal extracellular pH.

human PBMC [2] = experiment: fibrocyte formation in human PBMC, serum-free medium; assay type: cell-based; details: 5 days; for ability of SAP to inhibit fibrocyte formation: 100 ng/ml sialidase with 1 μg/ml SAP; for fibrocyte formation / differentiation: 100 ng/ml sialidase, 10 μg/ml DANA or 1 μg/ml SAP
Procedure: Human peripheral blood was collected from healthy adult volunteers who gave written consent and with specific approval from the Texas A&M University human subjects Institutional Review Board. Peripheral blood mononuclear cells (PBMC) were isolated from blood using Ficoll-Paque Plus (GE Healthcare Biosciences, Piscataway, NJ). Human PBMC were incubated in serum-free medium (FibroLife basal media (LM-0001, Lifeline Cell Technology, Walkersville, MD), supplemented with 10 mM HEPES (Sigma-Aldrich, St. Louis, MO), 1x non-essential amino acids (Sigma-Aldrich), 1 mM sodium pyruvate (Sigma-Aldrich), 2 mM glutamine (Invitrogen, Carlsbad, CA), 100 U/ml penicillin, 100 μg/ml streptomycin (Sigma-Aldrich), and 1x ITS-3 (Sigma-Aldrich) in the presence of absence of 100 ng/ml recombinant human sialidases (Origene, Rockville MD), 10 μg/ml DANA (Calbiochem, San Diego, CA), or 1 μg/ml human SAP (Calbiochem). After 5 days, fibrocytes were counted, and results are presented in FIG. 5.

human PBMC [3] = experiment: TGF-β1 accumulation by human PBMC (antibody staining and ELISA); assay type: cell-based; details: recombinant sialidase 200 ng/ml; five days
Procedure: To determine if sialidases might cause cells to accumulate intracellular and extracellular TGF-β1, human PBMC were cultured with sialidases in 96 well plates at 5×10^5 cells/ml and 200 μl/well in FibroLife serum-free medium for five days, then air dried. The levels of TGF-β1 in or on the cells was detected by staining with an antibody against TGF-β1. Photomicrographs were analyzed by counting stained cells (FIG. 7B) and quantifying staining intensity using ImageJ (FIG. 7C).
PBMC were cultured in 96 well plates at 5×10^5 cells/ml and 200 μl/well in FibroLife serum-free medium. When the cells were plated, recombinant human sialidases were added to final concentrations of 200 ng/ml, and DANA or oseltamivir were added to 3 μM. After 5 days, culture supernatants were analyzed using a TGF-β1 ELISA kit (R&D Systems).

human PBMC [4] = experiment: sialidase staining of human PBMC cultured with recombinant sialidases; assay type: cell-based
Text: In a similar experiment, cells were stained for NEU1, NEU2, NEU3, or NEU4 using antibodies.

human PBMC [5] = experiment: IL-6 ELISA of supernatants of human PBMC cultured with NEU3; assay type: cell-based; details: presence or absence of serum; two or five days
Procedure: To determine the effects of NEU3 on IL-6 production in human PBMC, human peripheral blood was collected from healthy volunteers who gave written consent and with specific approval from the Texas A&M University human subjects review board. PBMC were isolated from the blood using Ficoll-Paque density gradient centrifugation (GE Healthcare, Cincinnati, OH) following the manufacture's protocol. PBMCs were cultured at 10^5 cells/ml in each well of 96-well flat bottom tissue culture plates (VWR, Radnor, PA) with RPMI-1640 (VWR) supplemented with 10% bovine calf serum (BCS) (VWR), 100 U/ml penicillin, 100 μg/ml streptomycin, (VWR) and 2 mM glutamine (VWR) in a final volume of 200 μl per well. Cells were also cultured at 10^5 cells/ml in serum-free medium as described previously in Pilling, D., Vakil, V. & Gomer, R. H. Improved serum-free culture conditions for the differentiation of human and murine fibrocytes. […]
The culture supernatants were collected after two or five days and assayed using an IL-6 ELISA kit (BioLegend, San Diego, CA) following the manufacturer's protocol, reading absorbance with a SynergyMX plate reader (BioTek, Winooski, VT). Statistics were analyzed using Prism software (Graphpad, La Jolla, CA).

| Molecule | Sialidase activity ([1]; pH 6.4) | Sialidase activity ([1]; pH 7.0) | ability of SAP to inhibit fibrocyte formation (human PBMC [2]) | fibrocyte formation / differentiation (human PBMC [2]) | accumulation of TGF-β1 (human PBMC [3]) | levels of NEU3 in PBMC (human PBMC [4]) | extracellular accumulation of IL-6 (human PBMC [5]) |
| --- | --- | --- | --- | --- | --- | --- | --- |
| B1 | 3.8 ± 0.8 μmole/min/mg protein | 2.6 ± 0.9 μmole/min/mg protein | partially counteracted | potentiated fibrocyte formation | no significant effect | – | – |
| B2 | 16.4 ± 1.2 μmole/min/mg protein | 8.9 ± 1.2 μmole/min/mg protein | partially counteracted | potentiated fibrocyte formation | increased both cell-associated and extracellular TGF-β1 | upregulate levels of NEU3 | – |
| B3 | 15.2 ± 1.0 μmole/min/mg protein | 8.3 ± 1.2 μmole/min/mg protein | partially counteracted | – | increased both cell-associated and extracellular TGF-β1 | – | significantly upregulated |
